Values of other authors in publication PMC3433420.
Like-named read-outs stand apart in the source and are kept apart here.

Legend:
Settings in all cases: cited from earlier work
[1] = target: SHB (Homo sapiens) (UniProt Q15464)
[2] = target: SYK-NC (Homo sapiens) (UniProt P43405)
[3] = target: ABL2 (Homo sapiens) (UniProt P42684)
[4] = target: YES1 (Homo sapiens) (UniProt P07947)
[5] = target: ABL2 (Homo sapiens) (UniProt P42684); remark: listed apart in the source
[6] = target: BLK (Homo sapiens) (UniProt P51451)
[7] = target: RASA1-N (Homo sapiens) (UniProt P20936)
[8] = target: RASA1-N (Homo sapiens) (UniProt P20936); remark: listed apart in the source
[9] = target: RASA1-NC (Homo sapiens) (UniProt P20936)
[10] = target: SLA (Homo sapiens) (UniProt Q13239)
[11] = target: GRB7 (Homo sapiens) (UniProt Q14451)
[12] = target: PLCG2-NC (Homo sapiens) (UniProt P16885)
[13] = target: SOCS5 (Homo sapiens) (UniProt O75159)
[14] = target: PIK3R3-NC (Homo sapiens) (UniProt Q92569)
[15] = target: RASA1-N (Homo sapiens) (UniProt P20936); remark: listed apart in the source
[16] = target: ABL2 (Homo sapiens) (UniProt P42684); remark: listed apart in the source
[17] = target: FGR (Homo sapiens) (UniProt P09769)
[18] = target: VAV2 (Homo sapiens) (UniProt P52735)
[19] = target: PIK3R2-N (Homo sapiens) (UniProt O00459)
[20] = target: VAV2 (Homo sapiens) (UniProt P52735); remark: listed apart in the source
[21] = target: PIK3R3-NC (Homo sapiens) (UniProt Q92569); remark: listed apart in the source
[22] = target: RASA1-N (Homo sapiens) (UniProt P20936); remark: listed apart in the source
[23] = target: NCK2 (Homo sapiens) (UniProt O43639)
[24] = target: CRKL (Homo sapiens) (UniProt P46109)
[25] = target: SYK-NC (Homo sapiens) (UniProt P43405); remark: listed apart in the source
[26] = target: PIK3R3-NC (Homo sapiens) (UniProt Q92569); remark: listed apart in the source
[27] = target: VAV1 (Homo sapiens) (UniProt P15498)
[28] = target: GRB2 (Homo sapiens) (UniProt P62993)
[29] = target: SHC1-PTB (Homo sapiens) (UniProt P29353)
[30] = target: PIK3R1-NC (Homo sapiens) (UniProt P27986)
[31] = target: SYK-C (Homo sapiens) (UniProt P43405)
[32] = target: RASA1-N (Homo sapiens) (UniProt P20936); remark: listed apart in the source
[33] = target: NCK2 (Homo sapiens) (UniProt O43639); remark: listed apart in the source
[34] = target: ABL2 (Homo sapiens) (UniProt P42684); remark: listed apart in the source
[35] = target: ITK (Homo sapiens) (UniProt Q08881)
[36] = target: ABL2 (Homo sapiens) (UniProt P42684); remark: listed apart in the source
[37] = target: SHC1-PTB (Homo sapiens) (UniProt P29353); remark: listed apart in the source
[38] = target: VAV3 (Homo sapiens) (UniProt Q9UKW4)
[39] = target: PLCG2-NC (Homo sapiens) (UniProt P16885); remark: listed apart in the source
[40] = target: SYK-NC (Homo sapiens) (UniProt P43405); remark: listed apart in the source
[41] = target: YES1 (Homo sapiens) (UniProt P07947); remark: listed apart in the source
[42] = target: PIK3R3-N (Homo sapiens) (UniProt Q92569)
[43] = target: ZAP70-NC (Homo sapiens) (UniProt P43403)
[44] = target: RASA1-N (Homo sapiens) (UniProt P20936); remark: listed apart in the source
[45] = target: ABL2 (Homo sapiens) (UniProt P42684); remark: listed apart in the source
[46] = target: BLK (Homo sapiens) (UniProt P51451); remark: listed apart in the source
[47] = target: FGR (Homo sapiens) (UniProt P09769); remark: listed apart in the source
[48] = target: PIK3R1-NC (Homo sapiens) (UniProt P27986); remark: listed apart in the source
[49] = target: YES1 (Homo sapiens) (UniProt P07947); remark: listed apart in the source
[50] = target: PIK3R2-N (Homo sapiens) (UniProt O00459); remark: listed apart in the source
[51] = target: PIK3R3-NC (Homo sapiens) (UniProt Q92569); remark: listed apart in the source
[52] = target: PIK3R3-N (Homo sapiens) (UniProt Q92569); remark: listed apart in the source

Chain of RASA1-N (Homo sapiens) (P20936 176-446): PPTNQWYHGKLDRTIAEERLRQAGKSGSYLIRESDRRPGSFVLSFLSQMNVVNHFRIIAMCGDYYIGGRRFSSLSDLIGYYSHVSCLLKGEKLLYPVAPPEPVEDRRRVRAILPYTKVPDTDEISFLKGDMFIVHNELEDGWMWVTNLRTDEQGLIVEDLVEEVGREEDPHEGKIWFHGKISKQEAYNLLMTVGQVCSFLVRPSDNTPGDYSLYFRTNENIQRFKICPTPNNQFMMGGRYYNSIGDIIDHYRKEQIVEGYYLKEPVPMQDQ
Chain of ABL2 (Homo sapiens) (P42684 168-268): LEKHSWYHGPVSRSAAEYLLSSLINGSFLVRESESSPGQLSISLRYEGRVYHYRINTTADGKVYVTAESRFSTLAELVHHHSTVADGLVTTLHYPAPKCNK
Chain of YES1 (Homo sapiens) (P07947 153-260): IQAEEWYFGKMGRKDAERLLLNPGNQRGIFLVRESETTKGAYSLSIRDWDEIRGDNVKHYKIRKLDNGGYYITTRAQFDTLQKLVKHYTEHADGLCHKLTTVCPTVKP
Chain of PIK3R1-NC (Homo sapiens) (P27986 328-723): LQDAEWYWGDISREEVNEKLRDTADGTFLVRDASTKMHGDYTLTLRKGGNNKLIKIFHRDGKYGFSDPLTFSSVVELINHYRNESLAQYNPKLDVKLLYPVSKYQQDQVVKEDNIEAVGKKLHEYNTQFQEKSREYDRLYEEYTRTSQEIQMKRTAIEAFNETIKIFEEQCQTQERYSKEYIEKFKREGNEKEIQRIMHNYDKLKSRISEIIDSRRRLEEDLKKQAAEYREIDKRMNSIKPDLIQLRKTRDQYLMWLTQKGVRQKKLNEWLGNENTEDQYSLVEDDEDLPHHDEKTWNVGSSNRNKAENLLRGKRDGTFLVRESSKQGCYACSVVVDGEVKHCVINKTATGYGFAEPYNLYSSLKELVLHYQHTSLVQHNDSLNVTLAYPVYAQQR
Chain of NCK2 (Homo sapiens) (O43639 280-380): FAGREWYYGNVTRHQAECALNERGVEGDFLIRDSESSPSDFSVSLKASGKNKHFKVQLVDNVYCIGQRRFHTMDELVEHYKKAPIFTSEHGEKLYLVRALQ
Chain of PIK3R2-N (Homo sapiens) (O00459 325-721): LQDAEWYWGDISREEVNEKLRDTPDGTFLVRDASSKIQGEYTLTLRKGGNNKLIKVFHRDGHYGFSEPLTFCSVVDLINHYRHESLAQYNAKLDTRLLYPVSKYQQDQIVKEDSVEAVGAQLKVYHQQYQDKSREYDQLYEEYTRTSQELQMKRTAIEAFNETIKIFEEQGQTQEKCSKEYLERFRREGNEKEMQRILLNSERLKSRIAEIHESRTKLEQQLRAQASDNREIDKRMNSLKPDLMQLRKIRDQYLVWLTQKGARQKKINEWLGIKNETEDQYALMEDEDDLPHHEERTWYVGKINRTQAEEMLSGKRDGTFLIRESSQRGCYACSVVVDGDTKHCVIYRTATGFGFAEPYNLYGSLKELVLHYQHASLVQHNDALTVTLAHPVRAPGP
Chain of BLK (Homo sapiens) (P51451 119-225): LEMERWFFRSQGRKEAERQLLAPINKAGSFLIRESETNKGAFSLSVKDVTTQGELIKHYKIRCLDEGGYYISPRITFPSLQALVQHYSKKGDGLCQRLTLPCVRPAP
Chain of VAV2 (Homo sapiens) (P52735 668-772): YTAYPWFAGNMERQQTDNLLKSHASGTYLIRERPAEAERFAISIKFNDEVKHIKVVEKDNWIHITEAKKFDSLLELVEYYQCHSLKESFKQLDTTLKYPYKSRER
Chain of PLCG2-NC (Homo sapiens) (P16885 527-740): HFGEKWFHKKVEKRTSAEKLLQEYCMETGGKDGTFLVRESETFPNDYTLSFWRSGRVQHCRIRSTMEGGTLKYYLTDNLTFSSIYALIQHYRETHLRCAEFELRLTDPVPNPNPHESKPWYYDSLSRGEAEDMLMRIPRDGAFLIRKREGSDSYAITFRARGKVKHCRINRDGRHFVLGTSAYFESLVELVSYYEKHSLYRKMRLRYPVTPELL
Chain of SHC1-PTB (Homo sapiens) (P29353 483-583): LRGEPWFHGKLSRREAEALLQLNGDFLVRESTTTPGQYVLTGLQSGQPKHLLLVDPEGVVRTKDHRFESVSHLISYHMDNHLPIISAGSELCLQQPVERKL
Chain of GRB7 (Homo sapiens) (Q14451 426-532): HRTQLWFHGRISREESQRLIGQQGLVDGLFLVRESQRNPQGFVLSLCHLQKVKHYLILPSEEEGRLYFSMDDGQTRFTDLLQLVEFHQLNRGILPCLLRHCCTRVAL
Chain of CRKL (Homo sapiens) (P46109 9-107): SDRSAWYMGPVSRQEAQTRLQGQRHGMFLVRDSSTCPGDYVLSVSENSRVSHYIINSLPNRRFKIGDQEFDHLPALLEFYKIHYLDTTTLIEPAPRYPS
Chain of SOCS5 (Homo sapiens) (O75159 376-481): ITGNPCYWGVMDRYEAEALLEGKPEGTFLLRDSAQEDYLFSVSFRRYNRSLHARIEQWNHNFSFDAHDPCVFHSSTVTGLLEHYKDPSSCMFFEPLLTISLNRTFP
Chain of VAV3 (Homo sapiens) (Q9UKW4 667-771): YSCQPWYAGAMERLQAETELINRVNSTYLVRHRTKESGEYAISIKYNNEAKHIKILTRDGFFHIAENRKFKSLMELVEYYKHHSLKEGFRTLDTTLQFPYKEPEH
Chain of RASA1-NC (Homo sapiens) (P20936 176-446): as the sequence (P20936 176-446) above
Chain of ITK (Homo sapiens) (Q08881 234-343): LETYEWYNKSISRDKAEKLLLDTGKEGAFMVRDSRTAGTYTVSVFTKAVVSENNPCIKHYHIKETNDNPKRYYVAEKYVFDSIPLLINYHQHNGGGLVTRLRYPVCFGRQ
Chain of GRB2 (Homo sapiens) (P62993 55-157): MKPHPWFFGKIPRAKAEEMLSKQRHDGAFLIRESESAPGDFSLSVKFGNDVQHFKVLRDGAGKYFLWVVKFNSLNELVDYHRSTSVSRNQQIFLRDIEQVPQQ
Chain of SHB (Homo sapiens) (Q15464 405-509): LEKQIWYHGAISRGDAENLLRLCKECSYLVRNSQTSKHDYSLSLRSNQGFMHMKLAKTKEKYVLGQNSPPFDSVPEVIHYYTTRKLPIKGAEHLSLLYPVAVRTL
Chain of ZAP70-NC (Homo sapiens) (P43403 5-259): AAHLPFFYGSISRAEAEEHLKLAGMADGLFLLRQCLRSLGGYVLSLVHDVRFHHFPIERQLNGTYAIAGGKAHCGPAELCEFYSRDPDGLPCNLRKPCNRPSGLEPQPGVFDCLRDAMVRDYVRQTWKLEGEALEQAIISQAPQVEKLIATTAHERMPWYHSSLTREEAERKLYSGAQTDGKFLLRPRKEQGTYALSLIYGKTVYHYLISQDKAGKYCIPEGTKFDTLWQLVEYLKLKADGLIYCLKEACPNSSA
Chain of VAV1 (Homo sapiens) (P15498 666-770): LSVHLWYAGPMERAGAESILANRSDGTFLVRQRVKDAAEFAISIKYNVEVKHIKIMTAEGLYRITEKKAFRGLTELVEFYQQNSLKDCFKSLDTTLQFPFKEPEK
Chain of SLA (Homo sapiens) (Q13239 79-180): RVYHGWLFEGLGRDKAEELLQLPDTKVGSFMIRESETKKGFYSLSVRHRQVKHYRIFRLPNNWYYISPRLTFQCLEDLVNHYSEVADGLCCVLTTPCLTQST

What does the source list for …pYDGIPASEd?
apparent Kd (screen) [1]: 1.06 µM; apparent Kd (screen) [2]: 1.55 µM; apparent Kd (screen) [3]: 0.177 µM; apparent Kd (screen) [4]: 0.328 µM; apparent Kd (screen) [5]: 0.137 µM; apparent Kd (screen) [6]: 1.18 µM; apparent Kd (screen) [7]: 1.47 µM; apparent Kd (screen) [8]: 1.41 µM

Which apparent Kd (screen) [9] does the source give for …pYMNRQRDG here?
The apparent Kd (screen) was 2 µM.

And the apparent Kd (screen) [10]?
Its apparent Kd (screen) is 2 µM.

What about the apparent Kd (screen) [11] of the same substance?
Its apparent Kd (screen) is 2 µM.

What about the apparent Kd (screen) [12] of the same substance?
The apparent Kd (screen) was 2 µM.

What about the apparent Kd (screen) [13] of the same substance?
The apparent Kd (screen) was 2 µM.

What about the apparent Kd (screen) [14] of the same substance?
Its apparent Kd (screen) is 2 µM.

What about the apparent Kd (screen) [15] of the same substance?
The apparent Kd (screen) was 1.21 µM.

What about the apparent Kd (screen) [16] of the same substance?
The apparent Kd (screen) was 1.96 µM.

For …pYLTPQGGA, which apparent Kd (screen) [17] is on record?
Its apparent Kd (screen) is 1.68 µM.

What about the apparent Kd (screen) [18] of the same substance?
Its apparent Kd (screen) is 0.226 µM.

What about the apparent Kd (screen) [19] of the same substance?
The apparent Kd (screen) was 1.28 µM.

And the apparent Kd (screen) [20]?
The apparent Kd (screen) was 0.372 µM.

And the apparent Kd (screen) [21]?
The apparent Kd (screen) was 1.34 µM.

And the apparent Kd (screen) [22]?
The apparent Kd (screen) was 0.671 µM.

What about the apparent Kd (screen) [23] of the same substance?
Its apparent Kd (screen) is 1.1 µM.

And the apparent Kd (screen) [24]?
Its apparent Kd (screen) is 1.44 µM.

What about the apparent Kd (screen) [25] of the same substance?
Its apparent Kd (screen) is 1.33 µM.

And the apparent Kd (screen) [26]?
Its apparent Kd (screen) is 0.95 µM.

What about the apparent Kd (screen) [27] of the same substance?
Its apparent Kd (screen) is 1.25 µM.

And the apparent Kd (screen) [28]?
Its apparent Kd (screen) is 1.33 µM.

What about the apparent Kd (screen) [29] of the same substance?
Its apparent Kd (screen) is 0.153 µM.

What about the apparent Kd (screen) [30] of the same substance?
Its apparent Kd (screen) is 0.226 µM.

What about the apparent Kd (screen) [31] of the same substance?
Its apparent Kd (screen) is 1.24 µM.

What about the apparent Kd (screen) [32] of the same substance?
Its apparent Kd (screen) is 0.638 µM.

What about the apparent Kd (screen) [33] of the same substance?
Its apparent Kd (screen) is 0.759 µM.

And the apparent Kd (screen) [34]?
Its apparent Kd (screen) is 0.476 µM.

And the apparent Kd (screen) [35]?
Its apparent Kd (screen) is 0.767 µM.

And the apparent Kd (screen) [36]?
The apparent Kd (screen) was 0.368 µM.

What about the apparent Kd (screen) [37] of the same substance?
The apparent Kd (screen) was 0.346 µM.

What about the apparent Kd (screen) [38] of the same substance?
Its apparent Kd (screen) is 0.596 µM.

What about the apparent Kd (screen) [39] of the same substance?
The apparent Kd (screen) was 1.35 µM.

What about the apparent Kd (screen) [40] of the same substance?
Its apparent Kd (screen) is 1.15 µM.

What about the apparent Kd (screen) [41] of the same substance?
The apparent Kd (screen) was 1.19 µM.

And the apparent Kd (screen) [42]?
The apparent Kd (screen) was 1.39 µM.

Which results are given for …pYMNRRRRH?
apparent Kd (screen) [43]: 1.47 µM; apparent Kd (screen) [44]: 0.306 µM; apparent Kd (screen) [45]: 0.296 µM; apparent Kd (screen) [46]: 1.81 µM; apparent Kd (screen) [47]: 1.13 µM; apparent Kd (screen) [48]: 1.51 µM; apparent Kd (screen) [49]: 0.585 µM; apparent Kd (screen) [50]: 1.35 µM; apparent Kd (screen) [51]: 1.46 µM; apparent Kd (screen) [52]: 1.38 µM
